US10590475B2, “Detection of immune cells, in particular T cells through DNA-methylation analysis of the genes CCR6 and BLR1” (Epiontis GmbH, priority 2010, dated 2020)

Test system: CCR6^+CD4^+ memory T cells
Assay: CCR6 expression on CCR6+CD4+ memory T cells after TCR stimulation (anti-CD3/anti-CD28 beads)
Assay type: cell-based, human
Settings: six days, TGF-ß 10 ng/ml
Procedure: Buffy coats (DRK Blutspendedienst, Berlin, Germany) and peripheral blood samples were obtained from healthy donors after informed consent in accordance with local ethical committee approval. PBMCs were separated with a Ficoll-Hypaque gradient (Sigma-Aldrich). Cell surface antigens were analyzed by single-parameter or multi-parameter fluorescence-activated cell sorter (FACS®, BD Biosciences) analysis using the following monoclonal antibodies: PE-anti-CCR6 (11A9) and Alexa700-anti-CD4 (RPA-T4) (both from BD Biosciences). APC-anti-CD25 (BC96) was purchased from ebioscience. PE-Cy5-anti-CD8 (B9.11), PE-Cy5-anti-CD56 (N901) and FITC-anti-CD25 (B1.49.9) from Beckman Coulter. Antibodies generated in house (DRFZ, Berlin): FITC-anti-CD45RA (4G11), Alexa405-anti-CD4 (TT1) and Alexa405-anti-CD3 (OKT3). In some experiments, CCR6 expression was detected by indirect immunofluorescence using biotinylated CCR6 (11A9, BD Biosciences) followed by staining with APC-conjugated streptavidin (SouthernBiotech). […]
Memory CD4^+CCR6^+ and CD4^+CCR6^− cells were stained with carboxyfluorescein succinimidyl ester (CFSE) and cultured either in CM containing magnetic beads as described above or 10 ng/ml IL-7 and 10 ng/ml IL-15 (R&D Systems). […] At the end of the cultures, cells were analyzed by flow cytometry and used for methylation analyses (see below).

B1: IL-4: cytokine reported to promote TCR-induced CCR6 down-regulation (protein, UniProt P05112 25-153, looked up)
Interleukin-4: HKCDITLQEIIKTLNSLTEQKTLCTELTVTDIFAASKNTTEKETFCRAATVLRQFYSHHEKDTRCLGATAQQFHRHKQLIRFLKRLDRNLWGLAGLNSCPVKEANQSTLENFLERLKTIMREKYSKCSS
effect on TCR-induced down-regulation of CCR6 expression: promoted
